Experimental data published in the nanobody polyreactivity screen of Harvey et al. (2022).

Test: yeast display, Sf9 membrane polyspecificity reagent, FACS + sequencing; frameworks hold sequencing errors
Procedure, shortened: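 After 36–48 hours of galactose induction, yeast (Saccharomyces cerevisiae BJ5465) displaying a synthetic nanobody library were stained at 4 °C for 1 hour with 10% biotinylated, detergent-solubilized Sf9 membrane reagent. Streptavidin microbeads enriched the stained cells before FACS sorting into low and high (top ~1%) gates on anti-HA and streptavidin fluorescence. Each clone's polyreactivity label reflects its gate of origin.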

| Sequence | polyreactivity (PSR sort gate) |
| --- | --- |
| QVQLVETGGGLVQAGGSLRLSCAPSGRTLSYYAMGWYIQAPGKERELVAAIRHSAGSTYYADSVKVRFTISRDNAKNTVYLQMISLKPEDTAVYYCAKKYYGHRYPSIYDYWGQGTQVTVSS | high polyreactivity |
| QVQLVESGGGLVQAGGSLRLSCAASARIFYPYAMGWYRQAPGKERELVAAINWIGGSTYYADSVKGRFTISRDNAKYTVYLQMNSLKPEDSAVYYCAASYWHRRYDYWGQGTQVTLSS | high polyreactivity |
| QVQLVESGGGLVQAGGSLRLSCAASVFTFTVNTMGWYRQAPGKERELVAANSNTGSTKYADSVKGRFTISRDKAKNTLYLQMNSLKPEDTAVFYCAAEPGYYSRPDYRVYRVYYWGQGTQVTVSS | high polyreactivity |
| QVQLVESGGGLVQAGGSLGLSWAASGSIIRYNALGWYRQAPGKERELVAAITKGAGSTYYADSEKGRFTISRDNAKNTVYLHMNSLKPEDTEVYYCNKARGSGHTYYSWGQGTQVTVSS | high polyreactivity |
| QVHHVESGGGLVQAGGSLRLSCAASGLTFYGYTMGRSRQAPGKERELVAAISRGTSTKYADSVKGRFTISRDNAKNTVYLQMNSLKPEETAVYYCAAKGSRSGMGYWGQGTQVTVSS | high polyreactivity |
| QVQLVESGGGLVQAGGSLRLSCAASGFTFGSNAMGWYRQAPGKERELVAAISSGDSTHYADSVKGRFTISRDNAQNTVYLQMNSLKPEDTAVYYCNADNILYWSTLDYWGQGTQVTVSS | low polyreactivity |
| QVQLVESGGGLVQAGGRLRLICAASGSILNNYAMGWYRQAPGKERELVAAISSSGGTNYADSVKGRFTISRDNAKNTVYLQMNSLKPEDTAVYYCNADVLDGGYDYWGQGTQVTVSS | low polyreactivity |
| QVQLQGSGAGLVQAGGSLRLSCAPSGYILQNVPMGWNRQAPGKERELVAGIDNGTSTNYADSVNGSFTISRDNAKNTVYLQMNSLKPEDTAVYYCAAAGQADETLGYWGQGTQVTVSR | low polyreactivity |
| QVQLVESGGGLVQAGGSLRLSCAASGGIFSENALGWYRQAPGKERELVAVITTSGGSTYYADSVKGRFTISRDNAKNTVYLQMNSLKPEDTAVYYCAADVLSWEYDYWGQGTQVTVSS | low polyreactivity |
| QVQLVESGGGLVQAGGSLRLSCAASGRIFYRYSMGWYRQAPGKERELVAAIRYSGGTTYADSVKGRFTISRDNAKNTVYLQMNSLKPEDTAVYYCAARASLWGGFESWGQGTQVTVSS | high polyreactivity |
| QVQLVESGGGLVQAGGSLRLSCAASGSIFFQNGMGWYRQAPGKERELVAAISSSGDSTYYADSVKGRFTISRDYAKNTVYLQMNSLKPEDTAVYYCAAEPEYVSGPYDYWGQGTQVTVSS | low polyreactivity |
| QVQLVESGGGLVQAGGSLRLSCAASGFTFDVNAMGWYRQAPGKERELVASITGSGSRTDYADSVKGRFTISRDNAKNTVYLQMNSLKPEDTAVYYCATDQRLGYQDDDYWGQGTQVTVSS | low polyreactivity |
| QVQLVESGGGLVQAGGSLRLSCAASGITFLPYAMGWYRPAPGKERELVAAITRGGGSTYADSVKGRFTISRDNAKNTVYLQMYSLKPEDTAVYYCNAKGRGWTAQYDYWGQGTQVTVSS | low polyreactivity |
| QVQLVESGGGLVQAGGSLRLICAASGNTFVRYYMGWYRQAPGKEREFVAAITASGGSTFADSVKGRFTISRDNAKNTVYLQMNSLKPEDTAVYYCNAGNSSTGVDRYDYWGQGTQVSVSS | low polyreactivity |
| QVQLVESGGGLVQAGGSLRLSCADSGRTFRGNAMGWYRQAPGKERELVAAISWSGDSTYYADSVKGRFTISRDNAKNSVYLQMNSLKPEDTAVYYCNRDYGLQRYRGWYQYNYWGQGTQVTVSS | low polyreactivity |
| QVQLVESGGGLVQAGGSLRLSCAASGSINELYAKGWYRQAPGKERELVASITWRGGSTYYADSVKGRFTISRDNAKNTVYLQMNSLKPEDTAVYDCAADVPTASGTYDYWGQGTQVTVSS | low polyreactivity |
| QVQLVESGGGLVQAGGSLRLSCAASGFIFYRNAMGWYRQAPGKERELVAGISRSGTRTYYADSVKGRFTISRDYSKNTVYLQMNSLKPEDTAVYYCAADRSLGYDYWGQGTQVTVSS | high polyreactivity |
| QVQLVESGVGLVQAGGSLRLSCAASGSTFDTYAMGWYRQAPGKERELVAAITSSGSTYYADSVKGRFTISRDNAKNTVYLQMNSLKPEDTAVYYCAADLSYLYAHNPGDYWGQGTQVTVSS | low polyreactivity |
| QVQLVESGGGLVQAGGSLRLICAASGRIFFTYAMGWYIQAPGKERQLVASITGSGGSTYYADSVKGRFTISRDNAKNTVYLQMNSLKPEDTAVYYCAAALFRRQLYRKFYYWGQGTQVTVSS | low polyreactivity |
| QVQLVESGGGLVQAGGSLRLSCADSGSIFDDYTMGWYRQAPGKERELVAVITTGGTTYYADSVKGRFTISRDNAKNTVYLQMNSLKPEDTAVYYCAAKEANRYRRYYWGQGTQVTVSS | high polyreactivity |
| QVQLVESGGGLVQPGGSLRLSCAASGSTFWLYAMGWYRQAPGQERELVAAISARTGSTYYADSVKGRFTISRDNAKNTVYLQMNSLKPEDTAVYYCNVRYRGTPYGYWGQGTQVTVSS | low polyreactivity |
